The text below walks through data of patent US11376333B2, “mTG substrates for covalent conjugation of compounds” (COVALAB, priority 2013, dated 2022).

Where no end group is shown, it is not given here.

Common to all, as to format: biochemical
In test [1] the target is T1, microbial transglutaminase (mTG) (Streptomyces mobaraensis, UniProt P81453).
T1 construct: purchased Covalab, France opr 0054
T1 sequence (P81453 77-407): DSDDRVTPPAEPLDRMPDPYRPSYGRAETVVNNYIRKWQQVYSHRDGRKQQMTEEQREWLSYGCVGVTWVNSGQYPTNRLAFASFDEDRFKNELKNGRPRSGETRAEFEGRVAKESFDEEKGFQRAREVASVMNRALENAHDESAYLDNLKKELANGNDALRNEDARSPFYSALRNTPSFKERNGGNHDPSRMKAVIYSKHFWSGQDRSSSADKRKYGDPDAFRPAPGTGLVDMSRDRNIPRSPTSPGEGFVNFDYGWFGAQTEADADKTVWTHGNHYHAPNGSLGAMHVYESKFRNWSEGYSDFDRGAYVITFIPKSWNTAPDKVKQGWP
Put plainly: mTG-mediated incorporation of biotin-X-cadaverine into peptides coupled on Covabtest plate. The settings on record: 15 nmoles peptide coupled to plate, biot-cad 0.1 mg/ml, mTG 10 ng/well. Here is the method:
The coupling method was previously described by the Applicant (V. Thomas et al, 2004) and also in the corresponding data sheet of CovAbtest-Plate™ which is commercially available from Covalab (Ref #opr0004). Briefly, in separate tubes a solution mixture containing 150 μM of each peptide dissolved in 10 mM phosphate buffer pH5, 5 mM EDAC and 5 mM NHS was incubated for 30 min under gentle shaking. The resulting activated NHS-carboxyl C-terminal moiety of each peptide (15 nmoles) was used to be conjugated in each well of CovAbtest-Plate™ previously deprotonated during 15 min with 150 μl 0.6% sodium bicarbonate per well. The microtiter plate was then incubated during 2 hrs at room temperature and washed extensively with Tris Buffer Saline.
For this experiment we used the same procedures described by V Thomas et all (2004) and also in the Covalab's commercialized kit (opr0033). Briefly the Lyophilized transglutaminase was reconstituted in 40 mM tris buffer pH 8 and 50 μl of each mTG at 200 ng/ml and at 40 ng/ml were added in the wells containing 50 μl of biotin-X-cadaverine. The enzymatic mixture was incubated for 15 min at room temperature under gentle shaking. Then the plates were washed 3 times with TBS-Tween20 followed by the addition of 100 μl of diluted HRP labeled streptavidine ( 1/2000 in TBS Tween20, 0.5% BSA) in each well. After 30 min at room temperature and 3 washings in TBS-Tween20, 100 μL of TMB substrate were added and after 5 min the colour development was stopped using 100 μl of 0.5 M sulfuric acid. Absorbances at 450 nm were measured using a microplate reader (Multiskan, Labsystems, Helsinki, Finland).
To screen the peptide library (Covalab) and identify the putative new substrates of mTG we used Covabtest-peptide (described in B-I-1) in which the peptides were covalently coupled into the plates and the amine substrate Biotin-cadeverine (biot-cad) was free in solution. In this experiment 15 nmoles of each peptide (table 2) were covalently conjugated to microtiter plate and the incorporation of biot-cad (0.1 mg/ml) catalyzed by mTG (10 ng/well) was determined following the experiment described in B-II-1. Among all the peptides tested only few peptides were recognized by mTG as Gln (Q) donor to incorporate biot-cad as shown in the FIG. 1. The enzymatic activity was different between the peptide substrates. […] When Q is replaced by N (peptide HH12N11) no reactivity of the mTG was observed confirming the specificity of the enzyme to Gln donor. Moreover, if the reactivity of the 4 peptides (HH12Q11, DH6Q7, HG14Q11 and WG10Q7) is compared, it can be observed that the reactivity of the Gln depends on its position in the peptide sequence. In the most reactive peptides Q is located at the C-terminal. […]

The target of test [2] is T1, microbial transglutaminase (mTG). Put plainly: Colorimetric assay: mTG incorporation of biotinylated peptides into immobilized spermine, apparent Km. The settings on record: spermine plate; for Kmapp: biotin tagged peptides at 160-0 μM, Lineweaver-Burk, nr = peptide not recognized by the enzyme; for reactivity of peptide with mTG (text on Table 3): biotinylated peptides. An excerpt: To produce the Covabtest-spm plate, the procedure previously described in Mily et al (2009) was used.
For the screening of the peptide listed in table 2 (Biotinylated peptides) the inventors used our colorimetric assay to measure transglutaminase 2 (TG2) cross linking activity (Mily et al, 2009) and commercialized under ref opr0033 in which mTG was used instead of TG2 and described in this experience. The principle of the method is based on the transamidation activity of mTG, using covalently coupled spermine to carboxy-substituted polystyrene plates and biotinylated peptides. The assay consists of the incorporation of the glutamine gamma-carboxamide group into the immobilized spermine. The amount of biotinylated peptide bound to the plate, as measured by the activity of streptavidin-peroxidase, is directly proportional to the TG activity. Absorbance was measured at 450 nm using the microplate reader.
In order to compare the affinity of mTG to the preferred substrate, the peptides were used at different concentrations ranging from 160, 80, 40, 20, 10, 5, 2.5 and 0 μM. Then the apparent Km were determined for each peptide and were calculated by Lineweaver-Burk method (1/Absorbance=f(1/[mTG (μM)]).
In this experiment, spermine was conjugated into the plate as described in B-II-4. Biotinylated peptides described in table 3 were incubated with mTG at different concentration (160, 80, 40, 20, 10, 5, 2.5 and 0 μM). […] Even if E seems to abolish the reactivity of the peptides this cannot be due to the negative charge only but also to the nature of the amino acides at the position X+1, X+2 and X+3. […] This is confirmed with LN-11Q8Q10 peptide.

The target is the same in test [3]. Nature of the test: mTG reaction on preferred substrates and Q-to-N mutated analogues. The settings on record: mutated analogue peptides. An excerpt:
In order to confirm the specificity of mTG reaction on the highly reactive peptide HH12Q11 and its small derivatives DH6N5, the inventors synthesized the mutated analogue peptides in which the Gln donors (Q) were replaced by asparagine (N).

Test [4] has the same target. Put plainly: mTG incorporation of biot-cad into coated BSA-peptide conjugate, with free-peptide competition. The settings on record: 1 μg/ml coated, mTG 100 ng/ml, biotin-cad 0.1 mg/ml. Here is the method: 2 mg of each peptide was dissolved in 1 ml of deionized water and 150 nmoles were mixed with 0.5 mg BSA solubilized in 50 mM bicarbonate buffer pH9.5. After shaking, glutaraldehyde was added at a final concentration of 0.25% (v/v). The mixtures were kept at room temperature during 16 hrs under gentle shaking. At the end of this incubation time, sodium borohydride was added at a final concentration of 10 mg/ml to stabilize the cross-linking between BSA and the peptides. After 2 hours each mixture of peptide-BSA was dialyzed separately in PBS to remove any free peptides.
High binding 96 wells-microtiter plates (Costar) were used to immobilize BSA-peptide and to human IgG-peptide conjugates prepared as described in M-4 and M-5. For these experiments, conjugates were prepared at 50 μg/ml in 50 mM sodium carbonate buffer pH 9 and 100 μl of each solution was dispensed in the number of wells needed for the experiment. After overnight incubation at 4° C., the plates were washed extensively with Tris Buffer Saline (TBS) and were ready to be used for TG activity.
The same procedure was used as described in B-II-1
In the literature its well known that many proteins are not substrate of transglutaminase even if many glutamine residues are present in their structures (Gorman J J, Folk J E. J Biol Chem. 1984 Jul. 25; 259(14):9007-10). […]

For “GGSPLAQSHGGS (Peptide GS12Q7) [reference compound]”, the “reactivity as Gln donor for mTG incorporation of biot-cad” value (shortened to “reactivity as Gln donor”) in test [1] was “low reactivity”.

Regarding “PLVQSH (also: biotin, place not given here) [bPH6Q4]”, the Kmapp in test [2] was found to be 14.77 µM.

With “PSVQES (not fully specified; also: biotin tag, site not given here) [bPS6Q3]”, the Kmapp entry in test [2] was “nr”.

Take “HNKSQAL (also: biotin tag, position not given here) [bHL8Q6]”: the Kmapp entry in test [2] is listed as “nr”.

For HDLMWPDVYSNH [HH12N11], in test [3], the “mTG reactivity after replacement of Q by N” value is given as “abolish totally the enzyme reactivity”. Also, in test [1], the “reactivity as Gln donor” value was “no reactivity”.

Turning to “CHQSYV (also: biotin, place not given here) [bCV6Q3]”, the Kmapp entry in test [2] was “nr”.

Consider “HDLMWPDVYSNH (also: biotin, place not given here) [bHH12N11]”, for which the Kmapp entry in test [2] is listed as “nr”.

For “DVYSQE (also: biotin, place not given here) [bDE6Q5]”, in test [2], the Kmapp result is on record as “nr” and the “reactivity of peptide with mTG (text on Table 3)” value (“reactivity of peptide with mTG” for short) is listed as “reactivity seems to be lost”.

In the case of YEAQK [BEST2], in test [2], the Kmapp amounted to 0.114 µM and the “reactivity of peptide with mTG” value is reported as “excellent substrates”.

Turning to YEIQR [BEST1], in test [2], the Kmapp was 0.086 µM and the “reactivity of peptide with mTG” value is “excellent substrates”.

Take “VWRSQYF (also: biotin, place not given here) [bVF7Q5]”: the Kmapp result in test [2] is listed as “nr”.

Take WPDVYSQH (Peptide WH8Q7): the “reactivity of peptide with mTG” value in test [2] is reported as “highly reactive with mTG”.

WPAQR [BEST4]: in test [2], the Kmapp worked out at 0.225 µM and the “reactivity of peptide with mTG” value is given as “excellent substrates”.

With HSQALP [bHP6Q3(A)], the Kmapp entry in test [2] is “nr”.

Take WPDVYSQH (also: biotin) [bWH8Q7]: in test [2], the Kmapp came to 11.40 µM.

“KEEFQPL (also: biotin, place not given here) [bKL7Q5]”: the Kmapp entry in test [2] was “nr”.

Take “free BSA: non modified bovine serum albumin, control [reference compound]”: the “incorporation of biot-cad by mTG into coated protein” value in test [4] was “no reactivity”.

With “LLTLPSVQEQN (also: biotin, place not given here) [bLN11Q8-10]”, in test [2], the Kmapp worked out at 172.00 µM.

Consider YEAQR [BEST3], for which, in test [2], the Kmapp is 0.08 µM and the “reactivity of peptide with mTG” value is “excellent substrates”.

Consider “DVYSQH (also: biotin, place not given here) [bDH6Q5]”, for which the Kmapp in test [2] is 33.10 µM.

With WPLMMQD (also: biotin) [bWD7Q7], the Kmapp result in test [2] was “nr”.

Turning to “HDLMWPDVYSQH (also: biotin, place not given here) [bHH12Q11]”, the Kmapp in test [2] was found to be 3.08 µM.

As to “SPLKHQEY (also: biotin, place not given here) [bSY8Q6]”, the Kmapp in test [2] was more than 50.00 µM.

For the substance DVYSQH (Peptide DH6Q5), the “reactivity of peptide with mTG” value in test [2] is “highly reactive with mTG”.

Consider “FWIQE (also: biotin, place not given here) [bFE5Q4]”, for which, in test [2], the Kmapp worked out at 5.00 µM.

Turning to “DVYSNH (also: biotin, place not given here) [bDH6N5]”, the Kmapp entry in test [2] is “nr”.

Consider DVYSNH (Peptide DH6N5), for which the “mTG reactivity after replacement of Q by N” value in test [3] is listed as “abolish totally the enzyme reactivity”.

For YEVQK [BEST5], in test [2], the Kmapp came out at 0.126 µM and the “reactivity of peptide with mTG” value was “excellent substrates”.

Consider “LLTLPSVSEQN (also: biotin, place not given here) [bLN11Q10]”, for which, in test [2], the Kmapp result is reported as “nr” and the “reactivity of peptide with mTG” value is recorded as “inhibit completely the reactivity”.

With FWIQE (Peptide FE5Q4), the “reactivity as Gln donor” value in test [1] is “good substrate for mTG”. Moreover, in test [2], the “reactivity of peptide with mTG” value is reported as “high reactivity with mTG”.
